Test results: patent publication US20150344570A1 (published 2015)

T1: FcγRIIb extracellular domain with C-terminal His tag (human, UniProt P31994 43-217)
T1 construct: extracellular domain; soluble analyte in Biacore; also called FcgRIIb; not shown: His tag at the C terminus
T1 sequence (looked up): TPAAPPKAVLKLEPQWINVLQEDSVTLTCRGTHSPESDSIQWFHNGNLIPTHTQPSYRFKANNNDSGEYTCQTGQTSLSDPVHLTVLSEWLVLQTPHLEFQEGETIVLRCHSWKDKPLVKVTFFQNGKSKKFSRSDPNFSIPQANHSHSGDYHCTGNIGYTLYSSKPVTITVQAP

T2: FcγRIIb (human, UniProt P31994 43-217)
T2 construct: extracellular domain; also called FcgRIIb; 2b; not shown: His tag attached to the C terminus
T2 sequence (looked up): T1 sequence (looked up)

T3: FcγRIIa H (human, UniProt P12318 34-217)
T3 construct: extracellular domain; also called FcgRIIa H; 2aH; not shown: His tag attached to the C terminus
T3 sequence (looked up): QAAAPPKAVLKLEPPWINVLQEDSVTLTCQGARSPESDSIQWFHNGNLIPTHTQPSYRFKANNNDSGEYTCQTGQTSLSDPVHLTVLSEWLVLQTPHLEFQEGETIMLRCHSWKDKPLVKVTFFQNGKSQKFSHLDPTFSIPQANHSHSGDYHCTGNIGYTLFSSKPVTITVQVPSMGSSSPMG

B1: GpH7-A5/GpH7-B3 variant D270_13S/GpL16-k0 (antibody, human IgG1, kappa)
heavy 1: not shown
heavy 2: not shown
light: DIVMTQSPLSLPVTPGEPASISCQASESLVHSNRNTYLHWYLQKPGQSPQLLIYKVSNRFSGVPDRFSGSGSGTDFTLKISRVEAEDVGVYYCSQNTHVPPTFGQGTKVEIERTVAAPSVFIFPPSDEQLKSGTASVVCLLNNFYPREAKVQWKVDNALQSGNSQESVTEQDSKDSTYSLSSTLTLSKADYEKHKVYACEVTHQGLSSPVTKSFNRGEC
notes: change in the GpH7-B3 H chain only; also called He Ab
B2: GpH7-A5/GpH7-B3 variant E269_20W/GpL16-k0 (antibody, human IgG1, kappa)
heavy 1: not shown
heavy 2: not shown
light: B1 light
notes: as for B1
B3: GpH7-A5/GpH7-B3 variant D270_16H/GpL16-k0 (antibody, human IgG1, kappa)
heavy 1: not shown
heavy 2: not shown
light: B1 light
notes: as for B1
B4: GpH7-A5/GpH7-B3 variant P271_04F/GpL16-k0 (antibody, human IgG1, kappa)
heavy 1: not shown
heavy 2: not shown
light: B1 light
notes: as for B1
B5: GpH7-A5/GpH7-B3 variant P271_03V/GpL16-k0 (antibody, human IgG1, kappa)
heavy 1: not shown
heavy 2: not shown
light: B1 light
notes: as for B1
B6: GpH7-A5/GpH7-B3 variant P271_06M/GpL16-k0 (antibody, human IgG1, kappa)
heavy 1: not shown
heavy 2: not shown
light: B1 light
notes: as for B1
B7: GpH7-A5/GpH7-B3 variant D270_18N/GpL16-k0 (antibody, human IgG1, kappa)
heavy 1: not shown
heavy 2: not shown
light: B1 light
notes: as for B1
B8: GpH7-A5/GpH7-B3 variant P271_20W/GpL16-k0 (antibody, human IgG1, kappa)
heavy 1: not shown
heavy 2: not shown
light: B1 light
notes: as for B1
B9: GpH7-A5/GpH7-B3 variant D270_14T/GpL16-k0 (antibody, human IgG1, kappa)
heavy 1: not shown
heavy 2: not shown
light: B1 light
notes: as for B1
B10: GpH7-A5/GpH7-B3 variant D270_19Q/GpL16-k0 (antibody, human IgG1, kappa)
heavy 1: not shown
heavy 2: not shown
light: B1 light
notes: as for B1
B11: GpH7-A5/GpH7-B3 variant P271_07I/GpL16-k0 (antibody, human IgG1, kappa)
heavy 1: not shown
heavy 2: not shown
light: B1 light
notes: as for B1
B12: GpH7-A5/GpH7-B3 variant D270_15Y/GpL16-k0 (antibody, human IgG1, kappa)
heavy 1: not shown
heavy 2: not shown
light: B1 light
notes: as for B1
B13: GpH7-A5/GpH7-B3 variant E269_19Q/GpL16-k0 (antibody, human IgG1, kappa)
heavy 1: not shown
heavy 2: not shown
light: B1 light
notes: as for B1
B14: GpH7-A5/GpH7-B3 variant P271_15Y/GpL16-k0 (antibody, human IgG1, kappa)
heavy 1: not shown
heavy 2: not shown
light: B1 light
notes: as for B1
B15: GpH7-A5/GpH7-B3 variant P271_16H/GpL16-k0 (antibody, human IgG1, kappa)
heavy 1: not shown
heavy 2: not shown
light: B1 light
notes: as for B1
B16: GpH7-A5/GpH7-B3 variant D265_02A/GpL16-k0 (antibody, human IgG1, kappa)
heavy 1: not shown
heavy 2: not shown
light: B1 light
notes: Heterodimerized anti-glypican-3 IgG1; mutation in one H chain only; also called He Ab
B17: GpH7-A5/GpH7-B3 variant D265_07I/GpL16-k0 (antibody, human IgG1, kappa)
heavy 1: not shown
heavy 2: not shown
light: B1 light
notes: as for B16

What follows are binders tested against T1, FcγRIIb extracellular domain with … (assay: SPR, binding relative to GpH7-A5/GpH7-B3/GpL16-k0 = 100).

| He/Con_2b | Binder |
| --- | --- |
| 44.2 % of control | B1 |
| 42.5 % of control | B2 |
| 47.2 % of control | B3 |
| 59.5 % of control | B4 |
| 74.8 % of control | B5 |
| 77.5 % of control | B6 |
| 40.3 % of control | B7 |
| 58.1 % of control | B8 |
| 57.8 % of control | B9 |
| 48 % of control | B10 |
| 76.8 % of control | B11 |
| 44.9 % of control | B12 |
| 44.3 % of control | B13 |
| 52.3 % of control | B14 |
| 67.9 % of control | B15 |

The binders below were run against T4, FcγRIa extracellular domain with C-terminal His tag (human, UniProt P12314 16-292) in the same assay as above.
T4 construct: extracellular domain; soluble analyte in Biacore; also called FcgRI; not shown: His tag at the C terminus
T4 sequence (P12314 16-292): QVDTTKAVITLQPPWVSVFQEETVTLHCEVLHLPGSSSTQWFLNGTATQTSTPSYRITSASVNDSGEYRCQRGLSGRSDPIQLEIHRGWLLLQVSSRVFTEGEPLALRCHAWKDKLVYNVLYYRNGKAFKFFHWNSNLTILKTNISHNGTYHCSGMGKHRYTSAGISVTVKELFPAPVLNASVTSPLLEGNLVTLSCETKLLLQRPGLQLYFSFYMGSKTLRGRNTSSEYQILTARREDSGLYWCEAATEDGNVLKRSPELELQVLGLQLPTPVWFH

| He/Con_1a | Binder |
| --- | --- |
| 75.3 % of control | B1 |
| 105 % of control | B2 |
| 66 % of control | B3 |
| 102 % of control | B4 |
| 102 % of control | B5 |
| 102 % of control | B6 |
| 67.8 % of control | B7 |
| 103 % of control | B8 |
| 70.6 % of control | B9 |
| 78.2 % of control | B10 |
| 102 % of control | B11 |
| 68.5 % of control | B12 |
| 105 % of control | B13 |
| 103 % of control | B14 |
| 102 % of control | B15 |

These binders were tested against T4, FcγRIa extracellular domain with … (assay: SPR; He/Con_1a divided by He/Con_2b (FcγRIa against FcγRIIb)).
Description: (§1) The heterodimerized antibodies He Abs in which one of the H chains was introduced with an alteration were assayed for their binding activities to each activating FcγR and inhibitory FcγR according to the method described in Example 4. […] The activating FcγRs in FIGS. 26, 27, 28, and 29 are FcγRIa, FcγRIIa (R), FcγRIIa (H), and FcγRIIIa, respectively.
(§2) Analysis of interaction between objective antibody and the FcγR was carried out using Biacore T100 (GE Healthcare). HBS-EP+ (GE Healthcare) was used as the running buffer, and the measurement temperature was set to 25° C. Chips produced by immobilizing the antigen peptide by the amine coupling method to a Series S Sencor Chip CM5 (GE Healthcare), or alternatively, chips produced by allowing preliminarily biotinylated antigen peptides to interact with and immobilize onto a Series S Sensor Chip SA (certified) (GE Healthcare) were used. Antibodies of interest were captured onto an antigen peptide-immobilized chip, and allowed to interact to each FcγR diluted with running buffer. To regenerate and repeatedly use the chip, the antibodies captured on the chip were washed off by reacting 10 mM glycine-HCl, pH 1.5.

| He_1a/2b (Ia/IIb) | Binder |
| --- | --- |
| 1.7 ratio | B1 |
| 2.47 ratio | B2 |
| 1.4 ratio | B3 |
| 1.71 ratio | B4 |
| 1.37 ratio | B5 |
| 1.32 ratio | B6 |
| 1.68 ratio | B7 |
| 1.77 ratio | B8 |
| 1.22 ratio | B9 |
| 1.63 ratio | B10 |
| 1.33 ratio | B11 |
| 1.53 ratio | B12 |
| 2.37 ratio | B13 |
| 1.97 ratio | B14 |
| 1.5 ratio | B15 |

What follows are binders tested against T2, FcγRIIb (assay: SPR (Biacore), antibody captured on antigen peptide chip, FcγR as analyte; relative binding activity).
Description: as §1, §2

| He/Con_2b | Binder |
| --- | --- |
| 19.9 % of GpH7-A5/GpH7-B3/GpL16-k0 (=100) | B16 |
| 1.3 % of GpH7-A5/GpH7-B3/GpL16-k0 (=100) | B17 |

Each binder was assayed against T3, FcγRIIa H in the same assay as above.
Description: as §1, §2

| He/Con_2aH | Binder |
| --- | --- |
| 31.3 % of GpH7-A5/GpH7-B3/GpL16-k0 (=100) | B16 |
| 3.1 % of GpH7-A5/GpH7-B3/GpL16-k0 (=100) | B17 |

Each binder was assayed against T3, FcγRIIa H (assay: SPR; He/Con for FcγRIIa H divided by He/Con for FcγRIIb).

| He_2aH/2b (IIaH/IIb) | Binder |
| --- | --- |
| 1.58 ratio | B16 |
| 2.35 ratio | B17 |
